Measured values from article PMC8915965.
Read-outs that look alike come from different tables or passages of the source.

Legend:
[1] = expression in HeLaΔCD164 (SI Fig. S4); details: glycan lost; control: WT CD164

B1: rat CD164 (rCD164): T102N rCD164 (protein)
parent chain: MSGASRGLFWAATCLAALCLSAAQSNSSASPNVTDPPTTTSKVVPTTLTTTKPPETCESFNSCVSCVNATLTNNITCVWLDCHEANKTYCSSELVSNCTQKTSTDSCSVIPTTPVPTNSTAKPTTRPSSPTPTPSVVTSAGATNTTVTPTSQPERKSTFDAASFIGGIVLVLGVQAVIFFLYKFCKSKERNYHTL
Glycan gained
  other: support of virus infection: increases

B2: CD164: N104Q hCD164PM (protein)
parent chain: MSRLSRSLLWAATCLGVLCVLSADKNTTQHPNVTTLAPISNVTSAPVTSLPLVTTPAPETCEGRNSCVSCFNVSVVNTTCFWIECKDESYCSHNSTVSDCQVGNTTDFCSVSTATPVPTANSTAKPTVQPSPSTTSKTVTTSGTTNNTVTPTSQPVRKSTFDAASFIGGIVLVLGVQAVIFFLYKFCKSKERNYHTL
Glycan lost
  other: cell-cell membrane fusion: abolishes

B3: CD164: N94Q (protein)
parent chain: MSRLSRSLLWAATCLGVLCVLSADKNTTQHPNVTTLAPISNVTSAPVTSLPLVTTPAPETCEGRNSCVSCFNVSVVNTTCFWIECKDESYCSHNSTVSDCQVGNTTDFCSVSTATPVPTANSTAKPTVQPSPSTTSKTVTTSGTTNNTVTPTSQPVRKSTFDAASFIGGIVLVLGVQAVIFFLYKFCKSKERNYHTL
[1]
  expression_or_secretion: no change
Glycan lost
  other: support of virus infection: no change

B4: CD164: N104Q (protein)
parent chain: MSRLSRSLLWAATCLGVLCVLSADKNTTQHPNVTTLAPISNVTSAPVTSLPLVTTPAPETCEGRNSCVSCFNVSVVNTTCFWIECKDESYCSHNSTVSDCQVGNTTDFCSVSTATPVPTANSTAKPTVQPSPSTTSKTVTTSGTTNNTVTPTSQPVRKSTFDAASFIGGIVLVLGVQAVIFFLYKFCKSKERNYHTL
[1]
  expression_or_secretion: no change
Glycan lost
  other: support of virus infection: decreases

B5: CD164: N77Q (protein)
parent chain: MSRLSRSLLWAATCLGVLCVLSADKNTTQHPNVTTLAPISNVTSAPVTSLPLVTTPAPETCEGRNSCVSCFNVSVVNTTCFWIECKDESYCSHNSTVSDCQVGNTTDFCSVSTATPVPTANSTAKPTVQPSPSTTSKTVTTSGTTNNTVTPTSQPVRKSTFDAASFIGGIVLVLGVQAVIFFLYKFCKSKERNYHTL
[1]
  expression_or_secretion: no change
Glycan lost
  other: support of virus infection: no change

B6: CD164: N72Q (protein)
parent chain: MSRLSRSLLWAATCLGVLCVLSADKNTTQHPNVTTLAPISNVTSAPVTSLPLVTTPAPETCEGRNSCVSCFNVSVVNTTCFWIECKDESYCSHNSTVSDCQVGNTTDFCSVSTATPVPTANSTAKPTVQPSPSTTSKTVTTSGTTNNTVTPTSQPVRKSTFDAASFIGGIVLVLGVQAVIFFLYKFCKSKERNYHTL
[1]
  expression_or_secretion: no change
Glycan lost
  other: support of virus infection: no change
